This note sets out measurements from patent publication US20230212319A1, “NOVEL ANTIGEN BINDING DOMAINS AND SYNTHETIC ANTIGEN RECEPTORS INCORPORATING THE SAME” (University of Southern California, priority 2020, published 2023).

What all share (type): cell-based
One test relates to U-87 MG. Description: JNG NFAT-GFP assay, co-culture with U-87 MG cells.
A further test has as its system RAJI-CD19-KO cells. Description: JNG assay, co-culture with RAJI-CD19-KO cells. The settings on record: co-culture with Raji-CD19-KO. In short, it runs like this:
(§1)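 Jurkat NFAT-GFP (JNG) cells stably transduced with SARs by lentivirus, with drug selection where the construct carried a resistance gene, then co-cultured with target cells at E:T ~1:2 for ~4–18 h. % GFP-positive cells measured by FACS against parental JNG; +/- to 5+ correspond to ~5–50% GFP-positive.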

For a further test, the system named is RAJI cells. Description: JNG assay, co-culture with RAJI cells. The note with it: JNG cells expressing construct, co-culture with Raji. In a few lines:
as §1

A further test relates to RS;411. The test can be described thus: JNG assay, co-culture with RS;411 cells. The note with it: co-culture with RS411. In short, it runs like this: as §1

B1: 22169 (protein)
chain: MALPVTALLLPLALLLHAARPEVQLVESGGGLVQPGGSLRLSCAASGFASDYYIIGWFRQAPGKEREGVSCISSRYANTNYADSVKGRFTISRDNAKNTVYLQMNSLKPEDTAVYYCAADTRRYTCPDIATMHRNFDSWGQGTLVTVSSGTGGGGSGGGGSGGGGSEFDIQMTQSPSSLSASVGDRVTITCKASDHINNWLAWYQQKPGQAPKLLIYGATTLETGVPSRFSGSGSGTDYTLTISSLQPEDFATYYCQQSWNTPWTFGQGTKLEIKRLEIQNPDPAVYQLRDSKSSDKSVCLFTDFDSQTNVSQSKDSDVYITDKCVLDMRSMDFKSNSAVAWSNKSDFACANAFNNSIIPEDTFFPSSDVPCDVKLVEKSFETDTNLNFQNLSVIGFRILLLKVAGFNLLMTLRLWSSRAKRSGSGVKQTLNFDLLKLAGDVESNPGPTSATMDWIWRILFLVGAATGAHSGPQVQLQESGGGLAQAGGSLRLSCAASGRTFSMGWFRQAPGKEREFVAAITYSGGSPYYASSVRGRFTISRDNAKNTVYLQMNSLKPEDTAVYYCAANPTYGSDWNAENWGQGTQVTVSSGSGGGGSGGGGSGGGGSFEQVQLQQPGAELVKPGASVKMSCKASGYAFSSYWINWMKQKPGQGLEWIGQIYPGDGDTNYNGKFKGRATLTADTSSSTAYMQLSSLTSEDSAVYFCARSITTVVGCAMDYWGQGTSVTVSSTREDLKNVFPPEVAVFEPSKAEIAHTQKATLVCLATGFYPDHVELSWWVNGKEVHSGVCTDPQPLKEQPALNDSRYCLSSRLRVSATFWQNPRNHFRCQVQFYGLSENDEWTQDRAKPVTQIVSAEAWGRADCGITSASYHQGVLSATILYEILLGKATLYAVLVSALVLMAMVKRKDSRGRAKRSGSGATNFSLLKQAGDVEENPGPSRGHMTEYKPTVRLATRDDVPRAVRTLAAAFADYPATRHTVDPDRHIERVTELQELFLTRVGLDIGKVWVADDGAAVAVWTTPESVEAGAVFAEIGPRMAELSGSRLAAQQQMEGLLAPHRPKEPAWFLATVGVSPDHQGKGLGSAVVLPGVEAAERAGVPAFLETSAPRNLPFYERLGFTVTADVEVPEGPRTWCMTRKPGA
On to B1, for which the “NFAT-GFP ASSAY: U-87 MG” value in the test with U-87 MG was 3+ (refer to approximately 5%, 10%, 20%, 30%, 40% and 50% GFP positive cells). Also, the “NFAT-GFP ASSAY: Raji-CD19-KO” value in the test on RAJI-CD19-KO cells is 4+ (refer to approximately 5%, 10%, 20%, 30%, 40% and 50% GFP positive cells). For the same molecule, in the test with RAJI cells, the “NFAT-GFP ASSAY: Raji” value was 3+ (refer to approximately 5%, 10%, 20%, 30%, 40% and 50% GFP positive cells). Moreover, the “NFAT-GFP ASSAY: RS411” value in the test on RS;411 was 2+ (refer to approximately 5%, 10%, 20%, 30%, 40% and 50% GFP positive cells).
